How the values were obtained:
[1] = molecular target: LFY-DBD in the purified ASK1-UFO-LFY-DBD complex (Arabidopsis thaliana); assay: SEC-MALS
[2] = molecular target: T1, UFO in the purified ASK1-UFO-LFY-DBD complex (Arabidopsis thaliana, UniProt Q39090 1-442); assay: SEC-MALS
T1 sequence: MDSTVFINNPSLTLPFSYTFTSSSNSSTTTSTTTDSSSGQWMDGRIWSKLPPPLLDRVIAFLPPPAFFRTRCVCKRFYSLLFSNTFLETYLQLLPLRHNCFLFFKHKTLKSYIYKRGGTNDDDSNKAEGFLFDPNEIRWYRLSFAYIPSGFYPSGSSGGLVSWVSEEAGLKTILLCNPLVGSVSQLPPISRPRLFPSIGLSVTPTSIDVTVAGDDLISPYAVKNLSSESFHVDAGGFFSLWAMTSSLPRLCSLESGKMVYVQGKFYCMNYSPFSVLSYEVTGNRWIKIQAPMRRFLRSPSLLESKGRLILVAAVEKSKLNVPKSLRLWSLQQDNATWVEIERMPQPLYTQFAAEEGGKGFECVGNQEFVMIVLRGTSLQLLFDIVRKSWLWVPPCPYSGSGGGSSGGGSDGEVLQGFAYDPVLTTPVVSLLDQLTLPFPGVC

B1: UFO in the purified ASK1-UFO-LFY-DBD complex (natural protein)
chain: T1 sequence
stoichiometry N [1]: 1

B2: ASK1 in the purified ASK1-UFO-LFY-DBD complex (natural protein)
chain: MSAKKIVLKSSDGESFEVEEAVALESQTIAHMVEDDCVDNGVPLPNVTSKILAKVIEYCKRHVEAAASKAEAVEGAATSDDDLKAWDADFMKIDQATLFELILAANYLNIKNLLDLTCQTVADMIKGKTPEEIRTTFNIKNDFTPEEEEEVRRENQWAFE
stoichiometry N [2]: 1

— doi:10.1101/2022.06.14.495942 (bioRxiv, 2022)
